Measurements published in US20230293738A1 (Y MABS THERAPEUTICS, published 2023).

T1: human 4Ig-B7H3 (B7H3-4Ig-His) (human, UniProt Q5ZPR3 29-466)
T1 construct: Recombinant His-tagged protein immobilised on a CM5 chip; also called 41g-B7H3; human 4Ig-B7-H3 (dominant isoform); not shown: His tag
T1 sequence: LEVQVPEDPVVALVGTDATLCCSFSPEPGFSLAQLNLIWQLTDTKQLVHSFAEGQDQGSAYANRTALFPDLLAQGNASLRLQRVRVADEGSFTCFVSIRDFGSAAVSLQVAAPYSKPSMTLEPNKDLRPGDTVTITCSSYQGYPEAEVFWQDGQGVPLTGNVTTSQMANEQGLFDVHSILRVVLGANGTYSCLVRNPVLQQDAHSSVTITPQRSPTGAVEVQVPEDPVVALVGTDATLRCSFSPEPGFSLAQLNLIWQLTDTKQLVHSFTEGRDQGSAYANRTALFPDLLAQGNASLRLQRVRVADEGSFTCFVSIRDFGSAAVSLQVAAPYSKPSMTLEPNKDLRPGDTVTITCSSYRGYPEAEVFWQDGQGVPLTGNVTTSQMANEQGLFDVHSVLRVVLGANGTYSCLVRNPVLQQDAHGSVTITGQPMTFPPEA

T2: human 2Ig-B7H3 (B7H3-2Ig-His) (human, UniProt Q5ZPR3 29-466)
T2 construct: Recombinant His-tagged protein immobilised on a CM5 chip; also called 21g-B7H3; B7H3-21g-His; not shown: His tag
T2 sequence: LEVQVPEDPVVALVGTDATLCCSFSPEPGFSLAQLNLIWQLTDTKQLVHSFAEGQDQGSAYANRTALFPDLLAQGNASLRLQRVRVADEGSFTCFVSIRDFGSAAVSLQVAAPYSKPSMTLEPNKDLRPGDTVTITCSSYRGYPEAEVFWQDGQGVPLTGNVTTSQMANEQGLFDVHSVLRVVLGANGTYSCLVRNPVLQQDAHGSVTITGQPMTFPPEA


Legend:
[1] = target: T1, human 4Ig-B7H3 (B7H3-4Ig-His); assay: SPR
Protocol: (§1) Both human B7H3 41g and 21g proteins were dissolved in PBS (Phosphate-Buffered Saline) to make 0.1 mg/ml stock solution and stored in −80° C. B7-H3 proteins were immobilized onto the CM5 sensor chip using Amine Coupling Kit. Both proteins were diluted to 10 ug/ml with 10 mM Sodium acetate, pH 5.0. […] A blank immobilized surface was used as a control
(§2) The data were analyzed by the 1:1 fitting model and default parameter setting for the rate constants using the Biacore T200 Evaluation Software, and the apparent association on rate constant (kon, ka), dissociation off rate constant (koff, kd) and equilibrium dissociation constant (KD=kd/ka) were calculated.

[2] = target: T2, human 2Ig-B7H3 (B7H3-2Ig-His); assay: SPR
Protocol: as §1, §2

[3] = target: T2, human 2Ig-B7H3 (B7H3-2Ig-His); assay: SPR, Biacore T200, 2Ig-B7H3-His on CM5 chip, 1:1 fit
Protocol: as §1, §2

[4] = target: T1, human 4Ig-B7H3 (B7H3-4Ig-His); assay: SPR, Biacore T200, 4Ig-B7H3-His on CM5 chip, 1:1 fit
Protocol: as §1, §2

[5] = target: T2, human 2Ig-B7H3 (B7H3-2Ig-His); assay: SPR; CHX-A''-DTPA conjugate, CAR 3.6, labeled with cold 175Lu
Protocol: as §1
(§3) Binding Assays: [0143] 1. Antibodies were diluted in HBS-EP buffer (10 mM HEPES, 150 mM NaCl, 3 mM EDTA, 0.05% Surfactant P20, pH 7.4) at varying concentrations (25-50-100-200-400 nM) prior to analysis. […] 2. Samples (60 ul) were injected over the sensor surface at a flow rate of 30 ul/min over 2 min. [0145] 3. Following completion of the association phase, dissociation was monitored in HBS-EP buffer for 10 min at the same flow rate. […] 4. At the end of each cycle, the surface was regenerated using 10 mM NaOH at a flow rate of 50 ul/min over 2×15 sec.

[6] = target: T2, human 2Ig-B7H3 (B7H3-2Ig-His); assay: SPR; 127I-labeled 8H9
Protocol: as §1, §3

[7] = target: T2, human 2Ig-B7H3 (B7H3-2Ig-His); assay: SPR, Biacore T200, 2Ig-B7H3-His on CM5 chip, 1:1 fit; 127I-labeled 8H9, lot P76501A
Protocol: as §1, §3

[8] = target: T2, human 2Ig-B7H3 (B7H3-2Ig-His); assay: SPR, Biacore T200, 2Ig-B7H3-His on CM5 chip, 1:1 fit; remark: listed apart in the source
Protocol: as §1, §3, §2

[9] = target: T1, human 4Ig-B7H3 (B7H3-4Ig-His); assay: SPR, Biacore T200, 4Ig-B7H3-His on CM5 chip, 1:1 fit; remark: listed apart in the source
Protocol: as §1, §3

[10] = target: T2, human 2Ig-B7H3 (B7H3-2Ig-His); assay: SPR, Biacore T200, 2Ig-B7H3-His on CM5 chip, 1:1 fit; DOTA conjugate, CAR 11.7, unlabeled
[11] = target: T1, human 4Ig-B7H3 (B7H3-4Ig-His); assay: SPR; remark: listed apart in the source
Protocol: as §1, §3

[12] = target: T2, human 2Ig-B7H3 (B7H3-2Ig-His); assay: SPR; remark: listed apart in the source
Protocol: as §1, §3

[13] = target: T2, human 2Ig-B7H3 (B7H3-2Ig-His); assay: SPR, Biacore T200, 2Ig-B7H3-His on CM5 chip, 1:1 fit; CHX-A''-DTPA conjugate, CAR 6.1, unlabeled

Row | Kd [1] [nM] | t ½ [1] [h] | t ½ [2] [h] | Kd [3] [nM] | t ½ [3] [h] | Kd [4] [nM] | t ½ [4] [h] | Kd [5] [nM] | Kd [6] [nM] | Kd [7] [nM] | T ½ [8] [h] | Kd [9] [nM] | t ½ [9] [h] | Kd [10] [nM] | Kd [11] [nM] | t ½ [11] [h] | t ½ [12] [h] | Kd [13] [nM] | Binder
1 | 18.5 | 0.722 | 5 | 2.34 | 5 | 18.5 | 0.722 | 2.34 |  |  |  |  |  |  |  |  |  |  | 175Lu-DTPA-8H9-antibody (CAR3.6) (antibody, mouse IgG1, kappa, V domains shown, p-SCN-Bn-CHX-A″-DTPA conjugated (CAR 3.6 per antibody), labelled with cold lutetium-175; sites not stated) VH: QVQLQQSGAELVKPGASVKLSCKASGYTFTNYDINWVRQRPEQGLEWIGWIFPGDGSTQYNEKFKGKATLTTDTSSSTAYMQLSRLTSEDSAVYFCARQTTATWFAYWGQGTLVTVSA VL: DIVMTQSPATLSVTPGDRVSLSCRASQSISDYLHWYQQKSHESPRLLIKYASQSISGIPSRFSGSGSGSDFTLSINSVEPEDVGVYYCQNGHSFPLTFGAGTKLELKR
2 | 0.666 | 4.39 | 308 |  | 308 | 0.666 | 4.39 |  | < 0.0787 | < 0.0787 |  |  |  |  |  |  |  |  | 127I-8H9-antibody P76501A (antibody, mouse IgG1, kappa, V domains shown, labelled with iodine-127; sites not stated) VH: QVQLQQSGAELVKPGASVKLSCKASGYTFTNYDINWVRQRPEQGLEWIGWIFPGDGSTQYNEKFKGKATLTTDTSSSTAYMQLSRLTSEDSAVYFCARQTTATWFAYWGQGTLVTVSA VL: DIVMTQSPATLSVTPGDRVSLSCRASQSISDYLHWYQQKSHESPRLLIKYASQSISGIPSRFSGSGSGSDFTLSINSVEPEDVGVYYCQNGHSFPLTFGAGTKLELKR
3 |  |  |  |  |  |  |  |  |  |  | 3.72 | 18.9 | 0.756 | 2.99 |  |  |  |  | 8H9 antibody conjugated with p-SCN-Bn-DOTA, CAR 11.7 (antibody, mouse IgG1, kappa, V domains shown, p-SCN-Bn-DOTA conjugated, CAR 11.7 per antibody; sites not stated, Chelator conjugate, not metal-labelled) VH: QVQLQQSGAELVKPGASVKLSCKASGYTFTNYDINWVRQRPEQGLEWIGWIFPGDGSTQYNEKFKGKATLTTDTSSSTAYMQLSRLTSEDSAVYFCARQTTATWFAYWGQGTLVTVSA VL: DIVMTQSPATLSVTPGDRVSLSCRASQSISDYLHWYQQKSHESPRLLIKYASQSISGIPSRFSGSGSGSDFTLSINSVEPEDVGVYYCQNGHSFPLTFGAGTKLELKR
4 |  |  |  |  |  |  |  |  |  |  | 0.394 | 53.8 | 0.215 |  | 53.8 | 0.215 | 0.394 | 24.3 | 8H9 antibody conjugated with p-SCN-Bn-CHX-A″-DTPA, CAR 6.1 (antibody, mouse IgG1, kappa, V domains shown, p-SCN-Bn-CHX-A″-DTPA conjugated, CAR 6.1 per antibody; sites not stated, Chelator conjugate, not metal-labelled) VH: QVQLQQSGAELVKPGASVKLSCKASGYTFTNYDINWVRQRPEQGLEWIGWIFPGDGSTQYNEKFKGKATLTTDTSSSTAYMQLSRLTSEDSAVYFCARQTTATWFAYWGQGTLVTVSA VL: DIVMTQSPATLSVTPGDRVSLSCRASQSISDYLHWYQQKSHESPRLLIKYASQSISGIPSRFSGSGSGSDFTLSINSVEPEDVGVYYCQNGHSFPLTFGAGTKLELKR
